Data taken from PMC6436938 (Molecular Cell, 2019).

Biological target: importin β (Impβ) (human, UniProt Q14974 1-876)
Assay: pull-down

Chain of importin β (Impβ) (Q14974 whole entry): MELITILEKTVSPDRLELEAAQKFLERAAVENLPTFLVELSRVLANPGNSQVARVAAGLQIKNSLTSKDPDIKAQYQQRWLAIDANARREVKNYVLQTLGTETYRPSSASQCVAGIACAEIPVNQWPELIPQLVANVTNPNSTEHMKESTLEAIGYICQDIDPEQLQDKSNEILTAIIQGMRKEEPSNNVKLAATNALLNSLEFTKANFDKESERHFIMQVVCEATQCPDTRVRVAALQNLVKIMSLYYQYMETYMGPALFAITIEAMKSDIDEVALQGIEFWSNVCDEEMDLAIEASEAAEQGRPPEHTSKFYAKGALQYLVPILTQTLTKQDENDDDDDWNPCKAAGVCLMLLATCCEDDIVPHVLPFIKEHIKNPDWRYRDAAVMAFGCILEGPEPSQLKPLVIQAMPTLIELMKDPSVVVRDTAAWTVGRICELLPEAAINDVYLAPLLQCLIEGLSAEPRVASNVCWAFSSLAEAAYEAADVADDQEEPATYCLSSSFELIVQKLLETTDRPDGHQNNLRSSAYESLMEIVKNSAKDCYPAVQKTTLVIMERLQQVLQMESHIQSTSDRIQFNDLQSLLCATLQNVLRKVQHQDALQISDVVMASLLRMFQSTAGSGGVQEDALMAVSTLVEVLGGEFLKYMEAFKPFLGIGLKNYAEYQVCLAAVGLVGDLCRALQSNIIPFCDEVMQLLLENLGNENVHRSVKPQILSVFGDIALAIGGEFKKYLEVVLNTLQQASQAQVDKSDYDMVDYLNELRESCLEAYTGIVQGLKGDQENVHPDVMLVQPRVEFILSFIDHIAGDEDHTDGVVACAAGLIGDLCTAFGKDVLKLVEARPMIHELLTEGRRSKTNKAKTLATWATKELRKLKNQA

B1: His-tagged H1.0 C-terminal domain (H1C, aas 96–194) (domain or fragment, human, UniProt P07305 96-194, looked up)
chain: AKSDEPKKSVAFKKTKKEIKKVATPKKASKPKKAASKAPTKKPKATPVKKAKKKLAATPKKAKKPKTVKAKPVKASKPKKAKPVKPKAKSSAKRAGKKK
- binding result: binds

B2: Nsp1_FG (497–608), construct containing five FG repeats from nucleoporin Nsp1 (domain or fragment)
chain: not shown
- binding result: binds
